Results published in patent publication US20230279368A1 (NORTH CAROLINA STATE UNIVERSITY, published 2023).

How the values were obtained:
[1] = biological target: the molecule itself; test: size exclusion chromatography, self-association (homodimer); data not shown
[2] = biological target: the molecule itself; test: size exclusion chromatography and SAXS, self-association (homodimer)
Procedure: Size Exclusion Chromatography. To determine molecular mass, NTA purified samples were subjected to size exclusion chromatography (Superdex 200 10/300 GL, GE Healthcare) equilibrated with SEC buffer (100 mM Tris pH7.5, 200 mM sodium chloride). The protein sample equilibrated in SEC buffer was applied to the column. The mass of BHT₍₂₃₋₅₉₄₎-HIS was calculated based on the standards in the high molecular weight gel calibration kit (Cytiva Life Sciences*).
Small angle X-ray scattering: Data Collection and Analysis. rBHT₍₂₃₋₅₉₄₎-HIS samples at 1 mg/ml and 4 mg/ml 5 mM in sodium phosphate buffer at pH 5 were measured on a Rigaku Bio-SAXS 2000. The instrument uses Cu Kα radiation (λ=1.54 Å) and was collimated to provide a sufficient Q-range of 0.01-0.67 Å⁻¹. Measurements were performed at ambient temperature. Samples were measured for a total of 40 min in 5 min scans. Data were corrected for transmission and sample background. […]
The dimer conformation was further validated in solution by small X-ray scattering (SAXS) (FIG. 7A). […] Molecular mass were calculated using the method described by Rambo and Tamer. The molecular mass determined from SAXS (˜169 KDa) confirmed that BHT forms a dimer in solution Table 3. […] The Rg and Dₘₐₓ of the 6M4F crystallographic dimer (molecule A and molecule C) calculated using Crysol are 34 Å and 110 Å, respectively. […]

Row | Protein | binding result [1] | binding result [2]
1 | rBHT(32-594)-HIS (enzyme, the entry describes its self-association into a dimer) SLTSNYETPSPTAIPLEPTPTATGTAELDALWNLVEAQYPVQTAAVTTLVTVPDDYKFEADPPSYALAGYETSEIAGLKFPKGFKFGVAGAAIQVEGAAKAEGRGPSTWDYLCHHYASTQCNNYDPDITTNHYYLYPLDFARLQHLGINTYSFSISWTRIYPLGAGYVNEAGLAHYDAVIHSAKKYGLEPVGTVFHWDTPLSLMLKYGAWQDTGDQIVKDFVTYATTVFKRYGNEVKTWFTFNEPRVFCSQNSGLPYNLTYPEGINSTSAVFRCTYNVLKAHGHAVKVYRDLVASGTIAAGEIGFKSDDNYPIPARPGNADDEESAKRHEAFRIGIFAQPVYGNGDYPDVVKETVGDMLPALTDEDKGYIKGSGDIFAIDGYRTDISHAALNGIANCIRNQSDPNWPVCEEGSDPFAHVYPSGFAIGQSADPLSSWLVNSAPFIRDQLKFLTQTYPAKGGIYFSEFGWAEDAEYDRQLLYQITWDGLRTQYLTDYLSQLLLAVHKDGINLRGALTWSFVDNWEWGLGMQQKFGFQFVNQSDPDLTRTFKLSAHAYAQFGRNHLHHHHHH | binds | –
2 | rBHT(54-594)-HIS (enzyme, the entry describes its self-association into a dimer) TGTAELDALWNLVEAQYPVQTAAVTTLVTVPDDYKFEADPPSYALAGYETSEIAGLKFPKGFKFGVAGAAIQVEGAAKAEGRGPSTWDYLCHHYASTQCNNYDPDITTNHYYLYPLDFARLQHLGINTYSFSISWTRIYPLGAGYVNEAGLAHYDAVIHSAKKYGLEPVGTVFHWDTPLSLMLKYGAWQDTGDQIVKDFVTYATTVFKRYGNEVKTWFTFNEPRVFCSQNSGLPYNLTYPEGINSTSAVFRCTYNVLKAHGHAVKVYRDLVASGTIAAGEIGFKSDDNYPIPARPGNADDEESAKRHEAFRIGIFAQPVYGNGDYPDVVKETVGDMLPALTDEDKGYIKGSGDIFAIDGYRTDISHAALNGIANCIRNQSDPNWPVCEEGSDPFAHVYPSGFAIGQSADPLSSWLVNSAPFIRDQLKFLTQTYPAKGGIYFSEFGWAEDAEYDRQLLYQITWDGLRTQYLTDYLSQLLLAVHKDGINLRGALTWSFVDNWEWGLGMQQKFGFQFVNQSDPDLTRTFKLSAHAYAQFGRNHLHHHHHH | binds | –
3 | rBHT(23-594)-HIS (enzyme, N-glycosylated at N289, N297, N431 and N569 (numbering of full-length BHT, SEQ ID NO: 1), expressed in K. pastoris, the entries describe its self-association into a homodimer) VTYPGAIPLSLTSNYETPSPTAIPLEPTPTATGTAELDALWNLVEAQYPVQTAAVTTLVTVPDDYKFEADPPSYALAGYETSEIAGLKFPKGFKFGVAGAAIQVEGAAKAEGRGPSTWDYLCHHYASTQCNNYDPDITTNHYYLYPLDFARLQHLGINTYSFSISWTRIYPLGAGYVNEAGLAHYDAVIHSAKKYGLEPVGTVFHWDTPLSLMLKYGAWQDTGDQIVKDFVTYATTVFKRYGNEVKTWFTFNEPRVFCSQNSGLPYNLTYPEGINSTSAVFRCTYNVLKAHGHAVKVYRDLVASGTIAAGEIGFKSDDNYPIPARPGNADDEESAKRHEAFRIGIFAQPVYGNGDYPDVVKETVGDMLPALTDEDKGYIKGSGDIFAIDGYRTDISHAALNGIANCIRNQSDPNWPVCEEGSDPFAHVYPSGFAIGQSADPLSSWLVNSAPFIRDQLKFLTQTYPAKGGIYFSEFGWAEDAEYDRQLLYQITWDGLRTQYLTDYLSQLLLAVHKDGINLRGALTWSFVDNWEWGLGMQQKFGFQFVNQSDPDLTRTFKLSAHAYAQFGRNHLHHHHHH | – | binds
4 | rBHT(57-594)-HIS (enzyme, the entry describes its self-association into a dimer) AELDALWNLVEAQYPVQTAAVTTLVTVPDDYKFEADPPSYALAGYETSEIAGLKFPKGFKFGVAGAAIQVEGAAKAEGRGPSTWDYLCHHYASTQCNNYDPDITTNHYYLYPLDFARLQHLGINTYSFSISWTRIYPLGAGYVNEAGLAHYDAVIHSAKKYGLEPVGTVFHWDTPLSLMLKYGAWQDTGDQIVKDFVTYATTVFKRYGNEVKTWFTFNEPRVFCSQNSGLPYNLTYPEGINSTSAVFRCTYNVLKAHGHAVKVYRDLVASGTIAAGEIGFKSDDNYPIPARPGNADDEESAKRHEAFRIGIFAQPVYGNGDYPDVVKETVGDMLPALTDEDKGYIKGSGDIFAIDGYRTDISHAALNGIANCIRNQSDPNWPVCEEGSDPFAHVYPSGFAIGQSADPLSSWLVNSAPFIRDQLKFLTQTYPAKGGIYFSEFGWAEDAEYDRQLLYQITWDGLRTQYLTDYLSQLLLAVHKDGINLRGALTWSFVDNWEWGLGMQQKFGFQFVNQSDPDLTRTFKLSAHAYAQFGRNHLHHHHHH | binds | –
